{"source": "patent US20240124560A1", "key": {"full-length MPER peptide": {"target": "full-length MPER peptide", "test": "ELISA on peptide MPER (654-683), antibody titrated"}, "[1]": {"target": "HIV-1 Env of pseudovirus NIH-084_X1254 c3 (clade G) (HIV-1)", "test": "cell-based or functional assay"}, "[2]": {"target": "HIV-1 Env of NIH-114_T257.31 (HIV-1)", "test": "cell-based or functional assay"}, "[3]": {"target": "HIV-1 Env of pseudovirus NIH-003_SC422661.8 (HIV-1)", "test": "cell-based or functional assay"}, "[4]": {"target": "envelope protein of control pseudovirus NAC_AMLV", "test": "cell-based or functional assay"}, "[5]": {"target": "HIV-1 Env of pseudovirus NIH-016_SC05.8C11.2344 (HIV-1)", "test": "cell-based or functional assay"}, "[6]": {"target": "HIV-1 Env of NAC_BaL.26 (HIV-1)", "test": "cell-based or functional assay"}, "[7]": {"target": "HIV-1 Env of NIH-015_62357.14.D3.4589 (HIV-1)", "test": "cell-based or functional assay"}, "[8]": {"target": "HIV-1 Env of pseudovirus NIH-098_89.F1 2 25 (clade CD) (HIV-1)", "test": "cell-based or functional assay"}, "[9]": {"target": "HIV-1 Env of pseudovirus NIH-031_HIV-16055.2.3 (HIV-1)", "test": "cell-based or functional assay"}, "[10]": {"target": "HIV-1 Env of pseudovirus NIH-075_CNE8 (HIV-1)", "test": "cell-based or functional assay"}, "[11]": {"target": "HIV-1 Env of pseudovirus NIH-059_Q461ENVe2 (HIV-1)", "test": "cell-based or functional assay"}, "[12]": {"target": "HIV-1 Env of NAC_SS1196.1 (HIV-1)", "test": "cell-based or functional assay"}, "[13]": {"target": "HIV-1 Env of pseudovirus NIH-096_6952.v1.c20 (HIV-1)", "test": "cell-based or functional assay"}, "[14]": {"target": "HIV-1 Env of NIH-026_ZM135M.PL10a (HIV-1)", "test": "cell-based or functional assay"}, "[15]": {"target": "HIV-1 Env of NIH-076_CNE5 (HIV-1)", "test": "cell-based or functional assay"}, "[16]": {"target": "HIV-1 Env of pseudovirus NIH-030_HIV-0013095.2.11 (HIV-1)", "test": "cell-based or functional assay"}, "[17]": {"target": "HIV-1 Env of pseudovirus NIH-069_C1080.c03 (HIV-1)", "test": "cell-based or functional assay"}, "[18]": {"target": "HIV-1 Env of pseudovirus NIH-010_1054.07.TC4.1499 (HIV-1)", "test": "cell-based or functional assay"}, "[19]": {"target": "HIV-1 Env of NIH-005_TRO.11 (HIV-1)", "test": "cell-based or functional assay"}, "[20]": {"target": "HIV-1 Env of NIH-097_6811.v7.c18 (HIV-1)", "test": "cell-based or functional assay"}, "[21]": {"target": "HIV-1 Env of pseudovirus NIH-011_1056.10.TA11.1826 (HIV-1)", "test": "cell-based or functional assay"}, "[22]": {"target": "HIV-1 Env of NAC_92TH021 (HIV-1)", "test": "cell-based or functional assay"}, "[23]": {"target": "HIV-1 Env of NIH-072_R3265.c06 (HIV-1)", "test": "cell-based or functional assay"}, "[24]": {"target": "HIV-1 Env of isolate NIH-089_3016.v5.c45 (HIV-1)", "test": "cell-based or functional assay"}, "[25]": {"target": "HIV-1 Env of pseudovirus NIH-022_ZM233M.PB6 (HIV-1)", "test": "cell-based or functional assay"}, "[26]": {"target": "HIV-1 Env of pseudovirus NAC_92RW020 (HIV-1)", "test": "cell-based or functional assay"}, "[27]": {"target": "HIV-1 Env of pseudovirus NIH-097_6811.v7.c18 (HIV-1)", "test": "cell-based or functional assay"}, "[28]": {"target": "HIV-1 Env of pseudovirus NIH-023_ZM249M.PL1 (HIV-1)", "test": "cell-based or functional assay"}, "[29]": {"target": "HIV-1 Env of NIH-103_0815.v3.c3 (HIV-1)", "test": "cell-based or functional assay"}, "[30]": {"target": "HIV-1 Env of NIH-079_BJOX010000.06.2 (HIV-1)", "test": "cell-based or functional assay"}, "[31]": {"target": "HIV-1 Env of pseudovirus NIH-080_BJOX025000.01.1 (HIV-1)", "test": "cell-based or functional assay"}, "[32]": {"target": "HIV-1 Env of isolate NIH-098_89.F1 2 25 (HIV-1)", "test": "cell-based or functional assay"}, "4E10-specific peptide": {"target": "4E10-specific peptide", "test": "ELISA on peptide MPER (671-683), antibody titrated"}}, "data": [{"substance": "PGZL1 (antibody)", "values": [{"measurement": "EC50 (read off the curve)", "setting": "full-length MPER peptide", "value": 0.02, "unit": "µg/mL"}, {"measurement": "IC50 (µg/ml), TZM-bl cell neutralization assay, pseudovirus", "setting": "[1]", "value": 45.5, "unit": "µg/mL"}, {"measurement": "IC80 neutralization", "setting": "[2]", "value": "> 50", "unit": "µg/mL"}, {"measurement": "neutralization IC50", "setting": "[3]", "value": 16.8, "unit": "µg/mL"}, {"measurement": "IC50 (µg/ml), TZM-bl cell neutralization assay, control pseudovirus", "setting": "[4]", "value": "> 50", "unit": "µg/mL"}, {"measurement": "IC80 (µg/ml), TZM-bl pseudovirus neutralization", "setting": "[4]", "value": "> 50", "unit": "µg/mL"}, {"measurement": "neutralization IC50", "setting": "[5]", "value": 5.77, "unit": "µg/mL"}, {"measurement": "IC80 neutralization", "setting": "[6]", "value": "> 50", "unit": "µg/mL"}, {"measurement": "IC80 neutralization", "setting": "[7]", "value": "> 50", "unit": "µg/mL"}, {"measurement": "IC50 (µg/ml), TZM-bl cell neutralization assay, pseudovirus", "setting": "[8]", "value": "> 50", "unit": "µg/mL"}, {"measurement": "neutralization IC50", "setting": "[9]", "value": 10.9, "unit": "µg/mL"}, {"measurement": "neutralization IC50", "setting": "[10]", "value": 0.247, "unit": "µg/mL"}, {"measurement": "neutralization IC50", "setting": "[11]", "value": 20.2, "unit": "µg/mL"}, {"measurement": "IC80 neutralization", "setting": "[12]", "value": 22.2, "unit": "µg/mL"}, {"measurement": "neutralization IC50", "setting": "[13]", "value": 0.89, "unit": "µg/mL"}, {"measurement": "IC80 neutralization", "setting": "[14]", "value": 2.08, "unit": "µg/mL"}, {"measurement": "IC80 neutralization", "setting": "[15]", "value": "> 50", "unit": "µg/mL"}, {"measurement": "neutralization IC50", "setting": "[16]", "value": 0.008, "unit": "µg/mL"}, {"measurement": "neutralization IC50", "setting": "[17]", "value": 1.73, "unit": "µg/mL"}, {"measurement": "neutralization IC50", "setting": "[18]", "value": 5.15, "unit": "µg/mL"}, {"measurement": "IC80 neutralization", "setting": "[19]", "value": 11.8, "unit": "µg/mL"}, {"measurement": "IC80 neutralization", "setting": "[20]", "value": "> 50", "unit": "µg/mL"}, {"measurement": "neutralization IC50", "setting": "[21]", "value": 3.72, "unit": "µg/mL"}, {"measurement": "IC80 neutralization", "setting": "[22]", "value": 8.27, "unit": "µg/mL"}, {"measurement": "IC80 neutralization", "setting": "[23]", "value": "> 50", "unit": "µg/mL"}, {"measurement": "IC80 (µg/ml), TZM-bl pseudovirus neutralization", "setting": "[24]", "value": 10.6, "unit": "µg/mL"}, {"measurement": "neutralization IC50", "setting": "[25]", "value": 5.9, "unit": "µg/mL"}, {"measurement": "neutralization IC50", "setting": "[26]", "value": 20.8, "unit": "µg/mL"}, {"measurement": "neutralization IC50", "setting": "[27]", "value": "> 50", "unit": "µg/mL"}, {"measurement": "neutralization IC50", "setting": "[28]", "value": 12.7, "unit": "µg/mL"}, {"measurement": "IC80 neutralization", "setting": "[29]", "value": "> 50", "unit": "µg/mL"}, {"measurement": "IC80 neutralization", "setting": "[30]", "value": 6.6, "unit": "µg/mL"}, {"measurement": "neutralization IC50", "setting": "[31]", "value": 7.13, "unit": "µg/mL"}, {"measurement": "IC80 (µg/ml), TZM-bl pseudovirus neutralization", "setting": "[32]", "value": "> 50", "unit": "µg/mL"}, {"measurement": "EC50 (read off the curve)", "setting": "4E10-specific peptide", "value": 0.02, "unit": "µg/mL"}]}]}
